Measurements: patent CN111662383A (ZHUHAI LIVZON MCAB BIOTECHNOLOGY CO LTD; DINGFU BIOTARGET …, dated 2020)
Where two headings read alike, the source gives them in different places.

T1: hB7H3-EGFP细胞 (HEK293 cells expressing human B7H3-EGFP) (human, UniProt Q5ZPR3 29-534)
T1 construct: not shown: enhanced green fluorescent protein EGFP, UniProt C5MKY7
T1 sequence (looked up): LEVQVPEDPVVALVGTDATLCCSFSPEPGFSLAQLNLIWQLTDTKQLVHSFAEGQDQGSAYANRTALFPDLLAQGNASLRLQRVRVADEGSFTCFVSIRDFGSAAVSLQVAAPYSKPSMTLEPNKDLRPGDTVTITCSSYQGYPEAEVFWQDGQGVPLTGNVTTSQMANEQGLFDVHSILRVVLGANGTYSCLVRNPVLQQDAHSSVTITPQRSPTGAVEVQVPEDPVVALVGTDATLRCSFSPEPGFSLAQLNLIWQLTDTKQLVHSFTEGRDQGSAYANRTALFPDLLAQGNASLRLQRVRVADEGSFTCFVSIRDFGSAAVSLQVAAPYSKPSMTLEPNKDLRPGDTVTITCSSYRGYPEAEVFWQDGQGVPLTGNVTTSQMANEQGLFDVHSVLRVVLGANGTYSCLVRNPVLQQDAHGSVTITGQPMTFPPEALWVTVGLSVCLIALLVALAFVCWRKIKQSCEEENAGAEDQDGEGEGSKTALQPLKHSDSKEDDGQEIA

T2: hB7H4细胞 (HEK293 cells expressing human B7H4-EGFP) (human, UniProt Q7Z7D3 25-282)
T2 construct: also called hB7H4-EGFP; not shown: enhanced green fluorescent protein EGFP, UniProt C5MKY7
T2 sequence (looked up): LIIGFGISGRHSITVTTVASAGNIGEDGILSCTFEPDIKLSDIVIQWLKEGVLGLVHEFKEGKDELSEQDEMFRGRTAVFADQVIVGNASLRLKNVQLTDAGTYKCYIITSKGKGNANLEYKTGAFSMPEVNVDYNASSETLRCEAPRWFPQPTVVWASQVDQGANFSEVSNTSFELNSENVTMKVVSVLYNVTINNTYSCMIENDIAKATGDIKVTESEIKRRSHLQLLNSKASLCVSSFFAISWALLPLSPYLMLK


Experiments:
[1] = molecular target: T3, 重组的人PD-L1-His (human, UniProt Q9NZQ7 19-238, limits assumed); test: BLI (Octet K2), antibody on AHC sensor, hPD-L1-His analyte
T3 construct: Analyte in the BLI assays; also called hPD-L1-His; hPD-L1; not shown: His tag
T3 sequence (Q9NZQ7 19-238 limits assumed): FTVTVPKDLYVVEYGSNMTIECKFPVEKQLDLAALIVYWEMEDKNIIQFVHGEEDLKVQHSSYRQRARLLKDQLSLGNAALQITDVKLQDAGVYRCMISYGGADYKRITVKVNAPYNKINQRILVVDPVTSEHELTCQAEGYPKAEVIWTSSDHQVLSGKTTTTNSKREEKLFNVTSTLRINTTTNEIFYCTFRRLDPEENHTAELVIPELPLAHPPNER

[2] = molecular target: T4, hPD-L1-Fc (human, UniProt Q9NZQ7 19-238); test: ELISA blocking assay, hPD-L1-Fc coated, competitor PD-1-Biotin 10μg/ml
T4 construct: range 1-238; The stated range 1-238 begins at residue 1 and so includes the native signal peptide; No linker is stated; also called hPD-L1-Fc融合蛋白
T4 sequence (Q9NZQ7 19-238 limits assumed, form in doubt): as the sequence (Q9NZQ7 19-238 limits assumed) above

[3] = molecular target: T3, 重组的人PD-L1-His; test: BLI as in Example 4, hPD-L1-His analyte
[4] = molecular target: T5, PD-L1 (in the mixed lymphocyte reaction of human dendritic cells and CD4+ T cells) (human, UniProt Q9NZQ7 19-290); test: cell-based or functional assay
T5 sequence (Q9NZQ7 19-290 limits assumed): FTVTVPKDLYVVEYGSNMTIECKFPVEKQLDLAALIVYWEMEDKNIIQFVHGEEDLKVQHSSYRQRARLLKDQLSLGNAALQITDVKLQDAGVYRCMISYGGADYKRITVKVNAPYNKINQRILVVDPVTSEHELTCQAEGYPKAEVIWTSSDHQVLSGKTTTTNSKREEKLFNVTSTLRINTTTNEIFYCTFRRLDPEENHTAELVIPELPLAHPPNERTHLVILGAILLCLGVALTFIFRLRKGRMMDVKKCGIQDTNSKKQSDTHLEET

[5] = molecular target: T5, PD-L1 (in the mixed lymphocyte reaction …); test: cell-based or functional assay; remark: listed apart in the source
[6] = molecular target: T3, 重组的人PD-L1-His; test: BLI as in Example 4, hPD-L1-His analyte; remark: listed apart in the source
[7] = molecular target: T5, PD-L1 (in the mixed lymphocyte reaction …); test: cell-based or functional assay; remark: listed apart in the source
[8] = molecular target: T6, hPD-L1-EGFP细胞 (HEK293 cells expressing human PD-L1-EGFP) (human, UniProt Q9NZQ7 19-290); test: FACS on PD-L1-EGFP cells
T6 construct: Fusion expressed on transfected HEK293 cells; junction between PD-L1 and EGFP not described; also called 细胞表面PD-L1; not shown: enhanced green fluorescent protein EGFP, UniProt C5MKY7
T6 sequence (Q9NZQ7 19-290): as the sequence (Q9NZQ7 19-290 limits assumed) above

[9] = molecular target: T7, hPD-1-EGFP细胞 (HEK293 cells expressing human PD-1-EGFP) (human, UniProt Q15116 25-288); test: FACS on transfected HEK293 cells
T7 construct: Fusion expressed on transfected HEK293 cells; not shown: enhanced green fluorescent protein EGFP, UniProt C5MKY7
T7 sequence (Q15116 25-288): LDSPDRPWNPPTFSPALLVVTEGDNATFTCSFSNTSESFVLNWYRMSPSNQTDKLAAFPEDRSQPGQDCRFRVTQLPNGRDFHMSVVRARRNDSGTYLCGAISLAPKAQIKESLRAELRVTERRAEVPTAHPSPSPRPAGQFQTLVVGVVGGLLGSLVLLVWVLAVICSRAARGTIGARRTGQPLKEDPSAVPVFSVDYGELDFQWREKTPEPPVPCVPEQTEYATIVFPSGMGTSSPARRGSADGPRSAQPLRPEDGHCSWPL

[10] = molecular target: T1, hB7H3-EGFP细胞 (HEK293 cells expressing …); test: FACS on transfected HEK293 cells
[11] = molecular target: T2, hB7H4细胞 (HEK293 cells expressing human …); test: FACS on transfected HEK293 cells
[12] = molecular target: T8, mPD-L1细胞 (HEK293 cells expressing mouse PD-L1-EGFP) (mouse, UniProt Q9EP73 19-290); test: FACS on transfected HEK293 cells
T8 construct: also called mPD-L1-EGFP; 小鼠PD-L1; not shown: enhanced green fluorescent protein EGFP, UniProt C5MKY7
T8 sequence (Q9EP73 19-290): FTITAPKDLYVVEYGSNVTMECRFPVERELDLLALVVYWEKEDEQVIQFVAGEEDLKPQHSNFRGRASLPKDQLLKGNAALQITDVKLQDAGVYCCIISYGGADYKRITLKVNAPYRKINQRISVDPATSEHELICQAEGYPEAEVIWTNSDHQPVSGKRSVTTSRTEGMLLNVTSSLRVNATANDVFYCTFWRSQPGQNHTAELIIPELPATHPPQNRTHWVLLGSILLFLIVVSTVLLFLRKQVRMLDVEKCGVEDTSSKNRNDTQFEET

[13] = molecular target: T3, 重组的人PD-L1-His; test: BLI (Octet K2), antibody on AMC sensor, hPD-L1-His analyte

Row | Binder | Kd [1] | koff [1] | kon [1] | IC50 [2] | EC50 of IFN-γ secretion in mixed lymphocyte reaction (MLR) [5] | EC50 of IFN-γ secretion in mixed lymphocyte reaction (MLR) [7] | EC50 [8] | binding result [9] | binding result [10] | binding result [11] | binding result [12] | Kd [13] | koff [13] | kon [13] | further results
1 | 人源化抗体8G1 3-3 (antibody, V domains shown, Humanized; also called 8G1VLV3 + 8G1VHV3) VH: QVQLVQSGAEVKKPGASVKVSCKASGYTFTEYIIHWVKQAPGQGLEWIGWFYPGSGNIRYNEKFKDKATLTADKSSSTVYMELSSLRSEDTAVYFCARHEDKGAWFAYWGQGTLVTVSS VL: DIVLTQSPATLSLSPGERATLSCSASSNVSYMYWYQQKPGQSPKPWIYLTSNLASGVPARFTGSGSGTSYTLTISSLEPEDFAVYYCQQWSSNPLTFGQGTKVEIK | 0.0163 nM | 5.79e-06 s⁻¹ | 355000 M⁻¹ s⁻¹ | 1.24 µg/mL | – | – | – | – | – | – | – | – | – | – | –
2 | 8G1 3-3NG (antibody, V domains shown, Glycosylation-site variant of humanized 8G1 3-3; human IgG1 format as for 8G1 3-3; also called 8G1 3-3 with N28 mutated in VL) VH: QVQLVQSGAEVKKPGASVKVSCKASGYTFTEYIIHWVKQAPGQGLEWIGWFYPGSGNIRYNEKFKDKATLTADKSSSTVYMELSSLRSEDTAVYFCARHEDKGAWFAYWGQGTLVTVSS VL: DIVLTQSPATLSLSPGERATLSCSASSQVSYMYWYQQKPGQSPKPWIYLTSNLASGVPARFTGSGSGTSYTLTISSLEPEDFAVYYCQQWSSNPLTFGQGTKVEIK | – | – | – | – | – | – | – | – | – | – | – | – | – | – | Kd [3]: 6.89 nM; koff [3]: 0.00174 s⁻¹; kon [3]: 252000 M⁻¹ s⁻¹
3 | 人源化抗体7A3 3-3 (antibody, V domains shown, Humanized; also called 7A3VLV3 + 7A3VHV3) VH: QVQLQESGPGLVKPSETLSLTCTVSGDSITSGYWNWIRKPPGNGLEYMGYISYTGSTYYNPSLKSRITITRDTSKNQYSLKLSSVTAADTAVYYCARFGLWHLPAALDYWGQGTLVTVSS VL: DIVLTQSPATLSLSPGERATLSCSAKSSISYMHWYQQKPGTSPKRWIYDTSKLASGVPARFSGSGSGTSYTLTISSLEPEDFAVYYCHQRSSYPFTFGQGTKVEIK | 2.85 nM | 0.00128 s⁻¹ | 449000 M⁻¹ s⁻¹ | 1.44 µg/mL | 0.0285 µg/mL | – | – | – | – | – | – | – | – | – | EC50 of IFN-γ secretion in mixed lymphocyte reaction (MLR) [4]: 0.449 µg/mL; Kd [6]: 13.2 nM; koff [6]: 0.00547 s⁻¹; kon [6]: 415000 M⁻¹ s⁻¹
4 | 抗体8G1 (antibody, V domains shown, Mouse antibody purified from hybridoma supernatant on protein A) VH: KVQLRQSGAELVKPGTSVKLSCKASGYTFTEYIIHWVKQRSGQGLEWIGWFYPGSGNIRYNEKFKDKATLTADKSSSTVYMELSRLTSEDSAVYFCARHEDKGAWFAYWGQGTLVTVSA VL: DIVLTQSPALLSASPGEKVTMTCSASSNVSYMYWYQQKPRSSPKPWIYLTSNLASGVPARFTGSGSGTSYSLTISSMEAEDGATYYCQQWSSNPLTFGAGTKLEVK | – | – | – | – | – | ~0.03 µg/mL | 2.25 µg/mL | no binding (tested: 10μg/ml) | no binding (tested: 10μg/ml) | no binding (tested: 10μg/ml) | no binding (tested: 10μg/ml) | 2.32 nM | 0.00117 s⁻¹ | 504000 M⁻¹ s⁻¹ | –
5 | 抗体5A5 (antibody, V domains shown, Mouse antibody purified from hybridoma supernatant on protein A) VH: EVQLQESGPSLVKPSQTLSLTCSVTGDSITSGYWNWIRKFPGNKLEYMGYISYTGSTYYNPSLKSRISITRDTSKNQYYLQLNSVTTEDTATYYCAKYGLWHLPAAMDYWGQGTSVTVSS VL: DIVLTQSPAIMSASPGEKVTMTCSASSSISYMHWYQQKPGTSPKRWIYDTSKLASGVPARFSGSGSGTSYSLTISSMEAEDAATYYCHQRSSYPFTFGSGTKLEIK | – | – | – | – | – | 0.104 µg/mL | 1.33 µg/mL | no binding (tested: 10μg/ml) | no binding (tested: 10μg/ml) | no binding (tested: 10μg/ml) | no binding (tested: 10μg/ml) | 5.75 nM | 0.00453 s⁻¹ | 788000 M⁻¹ s⁻¹ | –

More lines, main results first:

Row | Kd [1] | koff [1] | kon [1] | IC50 [2] | EC50 of IFN-γ secretion in mixed lymphocyte reaction (MLR) [5] | EC50 of IFN-γ secretion in mixed lymphocyte reaction (MLR) [7] | EC50 [8] | binding result [9] | binding result [10] | binding result [11] | binding result [12] | Kd [13] | koff [13] | kon [13] | Binder | further results
6 | – | – | – | – | 1.05 µg/mL | – | – | – | – | – | – | – | – | – | 7A3 3-3QG (antibody, V domains shown, human IgG1 format as for 7A3 3-3; also called 7A3 3-3 with N43Q in VH) VH: QVQLQESGPGLVKPSETLSLTCTVSGDSITSGYWNWIRKPPGQGLEYMGYISYTGSTYYNPSLKSRITITRDTSKNQYSLKLSSVTAADTAVYYCARFGLWHLPAALDYWGQGTLVTVSS VL: DIVLTQSPATLSLSPGERATLSCSAKSSISYMHWYQQKPGTSPKRWIYDTSKLASGVPARFSGSGSGTSYTLTISSLEPEDFAVYYCHQRSSYPFTFGQGTKVEIK | –
7 | – | – | – | – | 0.576 µg/mL | – | – | – | – | – | – | – | – | – | 7A3 3-3ND (antibody, V domains shown, human IgG1 format as for 7A3 3-3; also called 7A3 3-3 with G44D in VH) VH: QVQLQESGPGLVKPSETLSLTCTVSGDSITSGYWNWIRKPPGNDLEYMGYISYTGSTYYNPSLKSRITITRDTSKNQYSLKLSSVTAADTAVYYCARFGLWHLPAALDYWGQGTLVTVSS VL: DIVLTQSPATLSLSPGERATLSCSAKSSISYMHWYQQKPGTSPKRWIYDTSKLASGVPARFSGSGSGTSYTLTISSLEPEDFAVYYCHQRSSYPFTFGQGTKVEIK | Kd [6]: 14.4 nM; koff [6]: 0.00631 s⁻¹; kon [6]: 438000 M⁻¹ s⁻¹
8 | 23.6 nM | 0.0119 s⁻¹ | 504000 M⁻¹ s⁻¹ | 1.82 µg/mL | – | – | – | – | – | – | – | – | – | – | 人源化抗体7A3 1-3 (antibody, V domains shown, Humanized; also called 7A3VLV1 + 7A3VHV3) VH: QVQLQESGPGLVKPSETLSLTCTVSGDSITSGYWNWIRKPPGNGLEYMGYISYTGSTYYNPSLKSRITITRDTSKNQYSLKLSSVTAADTAVYYCARFGLWHLPAALDYWGQGTLVTVSS VL: DIVLTQSPATLSLSPGERATLSCSAKSSISYMHWYQQKPGQAPRLLIYDTSKLASGVPARFSGSGSGTDFTLTISSLEPEDFAVYYCHQRSSYPFTFGQGTKVEIK | EC50 of IFN-γ secretion in mixed lymphocyte reaction (MLR) [4]: ~0.176 µg/mL
9 | – | – | – | – | – | 0.0588 µg/mL | 2.76 µg/mL | no binding (tested: 10μg/ml) | no binding (tested: 10μg/ml) | no binding (tested: 10μg/ml) | no binding (tested: 10μg/ml) | 4.29 nM | 0.0036 s⁻¹ | 840000 M⁻¹ s⁻¹ | 抗体7A3 (antibody, V domains shown, Mouse antibody purified from hybridoma supernatant on protein A) VH: EVQLQESGPSLVKPSQTLSLTCSVTGDSITSGYWNWIRKFPGNDLEYMGYISYTGSTYYNPSLKSRISITRDTSKNQYYLQLNSVTTEDTATYYCARFGLWHLPAALDYWGQGTSVTVSS VL: DIVLTQSPAIMSASPGEKVTMTCSAKSSISYMHWYQQKPGTSPKRWIYDTSKLASGVPARFSGSGSGTSYSLTISSMEAEDAATYYCHQRSSYPFTFGSGTKLEIK | –
